Experimental data reported in paper PMC3844103 (Biochemistry, 2013).
Non-standard residues stand in square brackets, D forms with d. pY = N[C@@H](Cc1ccc(OP(=O)(O)O)cc1)C(=O)O

Target: T1, C-terminal SH2 (cSH2) domain of PLC-γ1 (rat, UniProt P10686 664-766)
T1 sequence (looked up): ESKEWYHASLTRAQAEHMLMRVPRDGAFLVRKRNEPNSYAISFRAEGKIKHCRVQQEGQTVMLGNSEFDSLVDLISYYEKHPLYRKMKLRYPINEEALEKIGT
Test: crystal structure

B1: pTyr783 peptide of PLC-γ1 (peptide)
peptide: Ac-DYGALYEGRNPGF[pY]VEAN-NH2
SMILES: CC(=O)N[C@@H](CC(=O)O)C(=O)N[C@@H](Cc1ccc(O)cc1)C(=O)NCC(=O)N[C@@H](C)C(=O)N[C@@H](CC(C)C)C(=O)N[C@@H](Cc1ccc(O)cc1)C(=O)N[C@@H](CCC(=O)O)C(=O)NCC(=O)N[C@@H](CCCNC(=N)N)C(=O)N[C@@H](CC(N)=O)C(=O)N1CCC[C@H]1C(=O)NCC(=O)N[C@@H](Cc1ccccc1)C(=O)N[C@@H](Cc1ccc(OP(=O)(O)O)cc1)C(=O)N[C@H](C(=O)N[C@@H](CCC(=O)O)C(=O)N[C@@H](C)C(=O)N[C@@H](CC(N)=O)C(N)=O)C(C)C
- binding result: binds
